The text below walks through data of US8597660B2, “Therapeutic approach to neurodegenerative disorders using a TFP5-peptide” (The United States of America, as represented by the …, priority 2010, dated 2013).

Entries after “also recorded” stand apart in the source; their conditions may differ.

In test [1] the target is T1, Cdk5/P25 (Homo sapiens, UniProt Q00535). In words: In vitro kinase (pad) assay of active Cdk5/P25 with histone H1 as substrate. It is filed as biochemical. As for the experimental part: (§1) Kinase assays were performed as previously described (Veeranna, et al., J Neurosci 18(11), 4008-4021, 1998). Briefly, 7 days in culture (7 DIC) primary rat cortical neurons were infected with P25, P35, Cdk5 wild-type, dominant negative-Cdk5 and P5 using the lentiviral gene delivery as described earlier. Cdk5 was immunoprecipitated using the polyclonal C8 antibody overnight at 4° C. and immunoglobulin isolated using Protein A sepharose beads for 2 hours at 4° C. Immunoprecipitates were washed three times with lysis buffer and then once with 1× kinase buffer containing 20 mM Tris-Cl pH 7.4, 1 mM EDTA, 1 mM EGTA, 10 mM MgCl2, 10 mM sodium fluoride and 1 mM sodium orthovanadate. Endogenous Cdks were immunoprecipitated from HEK 293 cells using their respective antibodies and treated as above. Kinase assays were performed in the same buffer containing 1 mM DTT, 0.1 mM ATP and 0.185 MBq [γ-32P] ATP with 20 μg of histone H1 as the substrate. Phosphorylation was performed in a final volume of […] incubated at 30° C. for 60 minutes, stopped by the addition of 10% SDS sample buffer and heating at 95° C. for 5 minutes. Samples were separated by SDS-PAGE, gels were stained with Coomassie, destained, dried and exposed to autoradiography. In pad assays, 25 μl aliquots of the incubation mixture were placed on a Whatman p80 paper square, washed and dried and placed in a scintillation vial for counting.
T1 sequence (Q00535 whole entry, species assumed): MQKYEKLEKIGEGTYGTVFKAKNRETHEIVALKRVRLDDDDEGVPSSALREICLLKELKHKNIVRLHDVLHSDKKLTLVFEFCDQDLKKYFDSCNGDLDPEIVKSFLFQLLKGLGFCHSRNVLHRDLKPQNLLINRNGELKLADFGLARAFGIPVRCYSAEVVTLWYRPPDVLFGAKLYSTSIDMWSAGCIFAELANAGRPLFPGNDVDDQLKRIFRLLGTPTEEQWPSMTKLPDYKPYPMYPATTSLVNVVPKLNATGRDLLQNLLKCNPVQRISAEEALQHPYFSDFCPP
These are GST-P1 (E211-A277 of SEQ ID NO: 16), 67 amino acid residues; GST-P2 (M237-A277), 41 residues; GST-P3 (E221-L267 of SEQ ID NO: 16), 47 residues; GST-P4 (E221-L249 of SEQ ID NO: 16), 29 residues and GST-P5 (K254-A277 of SEQ ID NO: 16) 24 residues. Each was incubated with active Cdk5/P25 in a kinase assay in vitro. […] FIG. 10 provides a comparison of P5 and CIP, relative to P35.
In a dose-dependent kinase assay the effective inhibitory concentration of P5 for both the Cdk5/P25 and Cdk5/P35 complexes was evaluated. His-P5 peptide was added at different concentrations to the in vitro assay containing 100 μM [γ32-P] ATP and histone H1. Inhibition increased progressively with increasing P5 concentration in both complexes (Compare FIGS. 2A, 2B with 2C, 2D).
P5, a 24 amino acid peptide derived from Cdk5 regulator p35, was modified by conjugating it with TAT PTD at the C-terminal end and with FITC (using a GGG linker) at the N-terminus to produce a fluorescent (FITC-labeled) TFP5 (SEQ ID NO: 2) peptide. In a dose-dependent kinase assay the effective inhibitory concentration of TFP5 for both the Cdk5/P25 and Cdk5/P35 complexes was evaluated. His-P5 peptide was added at different concentrations to the in vitro assay containing 100 μM [γ32-P] ATP and histone H1. […] Data represent means of four independent experiments with error bars representing SEM (*p≦0.05, **p≦0.001).

For test [2], the target named is T1, Cdk5/P25. In words: Kinase assay of Cdk5 immunoprecipitates from cortical neurons infected with Cdk5/P25 with or without P5. Further details: expressed in transfected cells; host or cells: E-18 rat cortical neurons, adenoviral infection (pAdTrack-CMV / AdEasy). Format: cell-based. The settings on record: E-18 rat cortical neurons co-infected with P5. The method, then:
Primary cultures of rat cortical neurons were prepared from E-18 rat fetuses as described previously (Zheng et al., J Biol Chem 278(26), 24026-24032, 2003). After 7 days, cells were infected independently or co-infected with empty vector (EV), the constructs of P5, P25, P35, wild-type Cdk5 and dominant negative Cdk5 (changing Lys33 to Thr33) using the Adenoviral vector (pAdTrack-CMV) packaging system as described above. […] The cells were fixed for immunocytochemistry analyses (ICC) or lysed with lysis buffer for immunoprecipitation and Western blot analyses. Cortical neuron cultures were prepared and plated on the cover slips as described. Human embryo kidney cells (HEK293) were grown as described previously (Zheng et al., Eur J Biochem 269(18), 4427-4434, 2002). In these studies HEK293 cells on day 1, or neurons on day 5, were transfected with or without Myc-P5-GFP using Lipofectamine 2000 following the manufacturer's instructions.
Kinase assays were performed as previously described (Veeranna, et al., J Neurosci 18(11), 4008-4021, 1998). Briefly, 7 days in culture (7 DIC) primary rat cortical neurons were infected with P25, P35, Cdk5 wild-type, dominant negative-Cdk5 and P5 using the lentiviral gene delivery as described earlier. […]

In test [3] the test system is Cdc2, Cdk2, Cdk4, and Cdk6. In words: Kinase assay of cell cycle Cdk immunoprecipitates from HEK293 cells infected with P5-myc or treated with roscovitine. The settings on record: HEK293 cells infected with P5-myc or treated with 20 μM roscovitine. It is filed as cell-based, human. The method, then: as §1, with “Briefly,” for “Kinase assays were performed as previously described (Veeranna, et al., J Neurosci 18(11), 4008-4021, 1998). Briefly,”, “Kinase assays were performed in the same buffer containing 1 mM DTT, 0.1 mM ATP and 0.185 MBq [γ-32P]” left out

Test [4] concerns the target Cdk5/P35 (Homo sapiens, UniProt Q00535). In words: In vitro kinase (pad) assay of active Cdk5/P35 with histone H1 as substrate. It is filed as biochemical. To be noted: 0.7 μM P5. The method, then: Kinase assays were performed as previously described (Veeranna, et al., J Neurosci 18(11), 4008-4021, 1998). Briefly, 7 days in culture (7 DIC) primary rat cortical neurons were infected with P25, P35, Cdk5 wild-type, dominant negative-Cdk5 and P5 using the lentiviral gene delivery as described earlier. Cdk5 was immunoprecipitated using the polyclonal C8 antibody overnight at 4° C. and immunoglobulin isolated using Protein A sepharose beads for 2 hours at 4° C. Immunoprecipitates were washed three times with lysis buffer and then once with 1× kinase buffer containing 20 mM Tris-Cl pH 7.4, 1 mM EDTA, 1 mM EGTA, 10 mM MgCl2, 10 mM sodium fluoride and 1 mM sodium orthovanadate. Endogenous Cdks were immunoprecipitated from HEK 293 cells using their respective antibodies and treated as above. […]
In a dose-dependent kinase assay the effective inhibitory concentration of P5 for both the Cdk5/P25 and Cdk5/P35 complexes was evaluated. […]
P5, a 24 amino acid peptide derived from Cdk5 regulator p35, was modified by conjugating it with TAT PTD at the C-terminal end and with FITC (using a GGG linker) at the N-terminus to produce a fluorescent (FITC-labeled) TFP5 (SEQ ID NO: 2) peptide. In a dose-dependent kinase assay the effective inhibitory concentration of TFP5 for both the Cdk5/P25 and Cdk5/P35 complexes was evaluated. […]

Cdk5/P35, sequence (Q00535 whole entry, species assumed): as above

In the case of “P5: 24 residue peptide derived from Cdk5 activator P35 (K254-A277 of SEQ ID NO: 16); Cdk5 inhibitory peptide (KEAFWDRCLSVINLMSSKMLQINA; listed as Homo sapiens)”, the “Inhibition of Cdk5/P25 activity” value in test [1] (0.7 μM P5) is listed as “approximately 70%”. Also, the “Specificity of inhibition, Cdk5/P25 versus Cdk5/P35” value in test [1] (in vitro (test tube) assay, 0.05 to 1.2 μM) is recorded as “equally inhibits each Cdk5 complex in a dose-dependent manner; also recorded: not specific for Cdk5/P25; also recorded: non-specific in vitro”. Moreover, the “Inhibition of Cdk5/P25 activity, comparison among peptides and CIP” value in test [1] (in vitro kinase assay, histone H1, FIG. 1) is on record as “most effective inhibitor of Cdk5/P25; also recorded: more effective inhibitors of Cdk5/P25 activity than CIP”. In addition, in test [2], the “Decrease of Cdk5 activity in neurons infected with Cdk5/P25” value is on record as “more than 90%”. Moreover, the “Inhibition of endogenous cell cycle Cdk activity” value in test [3] is listed as “virtually no effect; also recorded: no inhibition in all cases; also recorded: unaffected by P5”. Also, the “Inhibition of Cdk5/P35 activity” value in test [4] is on record as “approximately 70%”.
